Data reported in patent US20030049702.

How the values were obtained:
[1] = target: T1, in vitro translated FADD (from pcDNA3-Flag-FADD), Q13158
T1 chain: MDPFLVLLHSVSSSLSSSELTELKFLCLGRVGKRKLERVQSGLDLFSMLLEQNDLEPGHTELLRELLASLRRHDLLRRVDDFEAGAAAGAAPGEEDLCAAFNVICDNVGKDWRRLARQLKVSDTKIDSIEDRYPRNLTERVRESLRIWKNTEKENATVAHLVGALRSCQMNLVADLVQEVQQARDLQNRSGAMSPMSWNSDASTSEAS

B1: in vitro translated pro-Casp8 (from pcDNA3Flag-pro-Casp8) (protein)
chain: MDFSRNLYDIGEQLDSEDLASLKFLSLDYIPQRKQEPIKDALMLFQRLQEKRMLEESNLSFLKELLFRINRLDLLITYLNTRKEEMERELQTPGRAQISAYRVMLYQISEEVSRSELRSFKFLLQEEISKCKLDDDMNLLDIFIEMEKRVILGEGKLDILKRVCAQINKSLLKIINDYEEFSKERSSSLEGSPDEFSNGEELCGVMTISDSPREQDSESQTLDKVYQMKSKPRGYCLIINNHNFAKAREKVPKLHSIRDRNGTHLDAGALTTTFEELHFEIKPHDDCTVEQIYEILKIYQLMDHSNMDCFICCILSHGDKGIIYGTDGQEAPIYELTSQFTGLKCPSLAGKPKVFFIQACQGDNYQKGIPVETDSEEQPYLEMDLSSPQTRYIPDEADFLLGMATVNNCVSYRNPAEGTWYIQSLCQSLRERCPRGDDILTILTEVNYEVSNKDDKKNMGKQMPQPTFTLRKKLVFPSD
caspase-8 activity (cleavage of Ac-IETD-AFC) in vitro (DAP3-His6): increased protease activity by ˜5-fold
caspase-8 activity (cleavage of Ac-IETD-AFC) in vitro, DAP3 and FADD added together (DAP3-His6): ˜10-fold increase in caspase-8 activity
caspase-8 activity (cleavage of Ac-IETD-AFC) in vitro [1]: ˜3-fold increase in caspase-8 activity
